In US20080058263A1 (published 2008):

T1: VEGFR-3-Fc (UniProt P35916 25-328)
T1 construct: domain: first three Ig domains; conditioned supernatant of 293T cells; also called VEGFR-3-Fc fusion protein; not shown: Fc fragment of the pIg vector
T1 sequence (looked up): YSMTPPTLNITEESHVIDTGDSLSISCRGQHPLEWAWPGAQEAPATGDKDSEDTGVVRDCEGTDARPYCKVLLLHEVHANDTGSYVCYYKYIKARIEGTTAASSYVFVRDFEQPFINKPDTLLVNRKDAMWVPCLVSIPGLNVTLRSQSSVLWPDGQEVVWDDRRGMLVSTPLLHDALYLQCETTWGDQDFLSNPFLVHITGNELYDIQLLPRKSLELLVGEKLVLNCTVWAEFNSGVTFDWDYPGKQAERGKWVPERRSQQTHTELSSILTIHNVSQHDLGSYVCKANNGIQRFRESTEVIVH


Legend:
Assay in all cases: receptor-Fc IP
VEGFR-2-Fc = target: T2, VEGFR-2-Fc (UniProt P35968 20-322)
T2 construct: domain: first 3 Ig domains; conditioned supernatant of 293T cells; also called VEGFR-2-Fc fusion protein; not shown: Fc fragment of the pIg vector
T2 sequence (P35968 20-322): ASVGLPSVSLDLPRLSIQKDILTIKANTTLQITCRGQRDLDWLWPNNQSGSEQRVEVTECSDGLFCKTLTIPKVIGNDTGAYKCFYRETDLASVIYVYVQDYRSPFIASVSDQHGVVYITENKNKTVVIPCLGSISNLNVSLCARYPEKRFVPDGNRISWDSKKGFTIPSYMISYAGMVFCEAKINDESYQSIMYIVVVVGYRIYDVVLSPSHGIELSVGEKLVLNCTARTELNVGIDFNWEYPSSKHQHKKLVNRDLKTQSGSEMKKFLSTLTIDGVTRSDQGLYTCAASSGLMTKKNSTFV
Summary of the method: (§1)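 Binding of ligand from sample supernatant measured by pentahistidine-antibody immunoprecipitation. IP mix: PBS with 1.5% BSA, 0.06% Tween 20, 3 μg/ml heparin and 400 ng/ml fusion protein, added 1:2 to sample supernatant.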

VEGFR-1-Fc = target: T3, VEGFR-1-Fc (UniProt P17948 27-338)
T3 construct: domain: first three Ig domains; expressed in Drosophila S2 cells, purified on Protein A sepharose; also called VEGFR-1-Fc fusion protein; not shown: Fc fragment from the Signal-pIgPlus vector
T3 sequence (P17948 27-338): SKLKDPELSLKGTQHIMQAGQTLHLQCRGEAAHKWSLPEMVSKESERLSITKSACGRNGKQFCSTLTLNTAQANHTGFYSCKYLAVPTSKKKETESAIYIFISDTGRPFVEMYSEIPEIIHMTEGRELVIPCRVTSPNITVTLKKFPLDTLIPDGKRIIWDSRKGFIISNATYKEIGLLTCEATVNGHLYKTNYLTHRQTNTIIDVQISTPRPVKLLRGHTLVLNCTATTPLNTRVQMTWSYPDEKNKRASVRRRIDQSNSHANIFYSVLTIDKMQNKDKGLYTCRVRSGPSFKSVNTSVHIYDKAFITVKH
Summary of the method: as §1

VEGFR-3-Fc = target: T1, VEGFR-3-Fc
Summary of the method: as §1

Binder	binding result (VEGFR-2-Fc)	binding result (VEGFR-1-Fc)	binding result (VEGFR-3-Fc)
84-3 (ligand) AHYNTEILKFMDVYQRSYCHPIETLVDIFQEFGVATNTFFKPSCVPLMRCGGCCNSEGLQCVPTEESNITMQIMRIKPHQGQHIGEMSFLQHNKCECRPKKD	binds	binds	no binding
12-5 (ligand) GQNHHEVVKFMDVYQRSYCHPIETLVDIFQEFGVATNTFFKPPCVSVYRCGGCCNDEGLECVPTEESNITMQIMRIKPHQGQHIGEMSFANHTSCRCMSKLDLVF	no binding	binds	no binding
82-7 (ligand, clone entry) AHYNTEILKFMDVYQRSYCHPIETLVDIFQEFGVATNTFFKPPCVSVYRCGGCCNSEGLQCVPTEESNITMQIMRIKPHQGQHIGEMSFANHTSCRCMSKLDLVF	binds	binds	binds
12-1 (ligand) GQNHHEVVKFMDVYQRSYCHPIETLVDIFQEFGVATNTFFKPPCVSVYRCGGCCNDEGLECVPTEESNITMQIMRIKPHQGQHIGEMSFLQHNKCECRPKKDLVF	binds	binds	binds
72-2 (ligand) GQNHHEVVKSIDNEWRKTQCMPREVCIDVGKEFGVATNTFFKPPCVSVYRCGGCCNDEGLECMNTSTSYLSKTLFEIKPHQGQHIGEMSFLQHNKCECRPKKD	binds	no binding	binds
72-4 (ligand) GQNHHEVVKSIDNEWRKTQCMPREVCIDVGKEFGVATNTFFKPPCVSVYRCGGCCNSEGLQCMNTSTSYLSKTLFEIKPHQGQHIGEMSFLQHNKCECRPKKD	binds	no binding	binds
82-15 (ligand) AHYNTEILKFMDVYQRSYCHPIETLVDIFQEFGVATNTFFKPPCVSVYRCGGCCNSEGLQCVPTEESNITMQIMRITVPLSQGPKPVTISFANHTSCRCMSKLD	binds	no binding	binds
74-8 (ligand) GQNHHEVVKSIDNEWRKTQCMPREVCIDVGKEFGVATNTFFKPSCVPLMRCGGCCNSEGLQCMNTSTSYLSKTLFEIKPHQGQHIGEMSFANHTSCRCMSKLD	binds	no binding	no binding
72-8 (ligand) GQNHHEVVKSIDNEWRKTQCMPREVCIDVGKEFGVATNTFFKPPCVSVYRCGGCCNSEGLQCMNTSTSYLSKTLFEIKPHQGQHIGEMSFANHTSCRCMSKLD	binds	no binding	binds
22-16 (ligand) AHYNTEILKSIDNEWRKTQCMPREVCIDVGKEFGVATNTFFKPPCVSVYRCGGCCNSEGLQCMNTSTSYLSKTLFEITVPLSQGPKPVTISFANHTSCRCMSKLDLVFEQKLISEEDLNSAVDHHHHHH	binds	no binding	binds
82-9 (ligand, clone entry) AHYNTEILKFMDVYQRSYCHPIETLVDIFQEFGVATNTFFKPPCVSVYRCGGCCNDEGLECVPTEESNITMQIMRITVPLSQGPKPVTISFLQHNKCECRPKKDL	binds	binds	binds
82-11 (ligand, clone entry) AHYNTEILKFMDVYQRSYCHPIETLVDIFQEFGVATNTFFKPPCVSVYRCGGCCNSEGLQCVPTEESNITMQIMRITVPLSQGPKPVTISFLQHNKCECRPKKDL	binds	binds	binds
14-9 (ligand, clone entry) GQNHHEVVKFMDVYQRSYCHPIETLVDIFQEFGVATNTFFKPSCVPLMRCGGCCNDEGLECVPTEESNITMQIMRITVPLSQGPKPVTISFLQHNKCECRPKKDL	binds	binds	binds
84-11 (ligand, clone entry) AHYNTEILKFMDVYQRSYCHPIETLVDIFQEFGVATNTFFKPSCVPLMRCGGCCNSEGLQCVPTEESNITMQIMRITVPLSQGPKPVTISFLQHNKCECRPKKDL	binds	binds	binds
84-9 (ligand, clone entry) AHYNTEILKFMDVYQRSYCHPIETLVDIFQEFGVATNTFFKPSCVPLMRCGGCCNDEGLECVPTEESNITMQIMRITVPLSQGPKPVTISFLQHNKCECRPKKDL	binds	binds	binds

Other lines, results leading:

binding result (VEGFR-2-Fc)	binding result (VEGFR-1-Fc)	binding result (VEGFR-3-Fc)	Binder
no binding	binds	no binding	84-1 (ligand) AHYNTEILKFMDVYQRSYCHPIETLVDIFQEFGVATNTFFKPSCVPLMRCGGCCNDEGLECVPTEESNITMQIMRIKPHQGQHIGEMSFLQHNKCECRPKKD
no binding	no binding	binds	82-14 (ligand) AHYNTEILKFMDVYQRSYCHPIETLVDIFQEFGVATNTFFKPPCVSVYRCGGCCNDEGLECMNTSTSYLSKTLFEITVPLSQGPKPVTISFANHTSCRCMSKLD
no binding	no binding	binds	82-16 (ligand) AHYNTEILKFMDVYQRSYCHPIETLVDIFQEFGVATNTFFKPPCVSVYRCGGCCNSEGLQCMNTSTSYLSKTLFEITVPLSQGPKPVTISFANHTSCRCMSKLD
no binding	binds	no binding	82-5 (ligand) AHYNTEILKFMDVYQRSYCHPIETLVDIFQEFGVATNTFFKPPCVSVYRCGGCCNDEGLECVPTEESNITMQIMRIKPHQGQHIGEMSFANHTSCRCMSKLD
no binding	binds	no binding	84-5 (ligand) AHYNTEILKFMDVYQRSYCHPIETLVDIFQEFGVATNTFFKPSCVPLMRCGGCCNDEGLECVPTEESNITMQIMRIKPHQGQHIGEMSFANHTSCRCMSKLD
no binding	no binding	no binding	74-11 (ligand) GQNHHEVVKSIDNEWRKTQCMPREVCIDVGKEFGVATNTFFKPSCVPLMRCGGCCNSEGLQCVPTEESNITMQIMRITVPLSQGPKPVTISFLQHNKCECRPKKD
no binding	no binding	binds	72-6 (ligand) GQNHHEVVKSIDNEWRKTQCMPREVCIDVGKEFGVATNTFFKPPCVSVYRCGGCCNDEGLECMNTSTSYLSKTLFEIKPHQGQHIGEMSFANHTSCRCMSKLD
no binding	binds	binds	82-13 (ligand, clone entry) AHYNTEILKFMDVYQRSYCHPIETLVDIFQEFGVATNTFFKPPCVSVYRCGGCCNDEGLECVPTEESNITMQIMRITVPLSQGPKPVTISFANHTSCRCMSKLDL
binds	no binding	no binding	74-10 (ligand) GQNHHEVVKSIDNEWRKTQCMPREVCIDVGKEFGVATNTFFKPSCVPLMRCGGCCNDEGLECMNTSTSYLSKTLFEITVPLSQGPKPVTISFLQHNKCECRPKKD
binds	no binding	binds	72-10 (ligand) GQNHHEVVKSIDNEWRKTQCMPREVCIDVGKEFGVATNTFFKPPCVSVYRCGGCCNDEGLECMNTSTSYLSKTLFEITVPLSQGPKPVTISFLQHNKCECRPKKD
binds	no binding	no binding	74-12 (ligand) GQNHHEVVKSIDNEWRKTQCMPREVCIDVGKEFGVATNTFFKPSCVPLMRCGGCCNSEGLQCMNTSTSYLSKTLFEITVPLSQGPKPVTISFLQHNKCECRPKKD
